PMC2223497 (2026)

Columns and labels:
Assay in all cases: Scatchard binding assay
[1] = target: T1, G-CSF receptor (KK cells) (Homo sapiens, UniProt Q99062)
T1 chain: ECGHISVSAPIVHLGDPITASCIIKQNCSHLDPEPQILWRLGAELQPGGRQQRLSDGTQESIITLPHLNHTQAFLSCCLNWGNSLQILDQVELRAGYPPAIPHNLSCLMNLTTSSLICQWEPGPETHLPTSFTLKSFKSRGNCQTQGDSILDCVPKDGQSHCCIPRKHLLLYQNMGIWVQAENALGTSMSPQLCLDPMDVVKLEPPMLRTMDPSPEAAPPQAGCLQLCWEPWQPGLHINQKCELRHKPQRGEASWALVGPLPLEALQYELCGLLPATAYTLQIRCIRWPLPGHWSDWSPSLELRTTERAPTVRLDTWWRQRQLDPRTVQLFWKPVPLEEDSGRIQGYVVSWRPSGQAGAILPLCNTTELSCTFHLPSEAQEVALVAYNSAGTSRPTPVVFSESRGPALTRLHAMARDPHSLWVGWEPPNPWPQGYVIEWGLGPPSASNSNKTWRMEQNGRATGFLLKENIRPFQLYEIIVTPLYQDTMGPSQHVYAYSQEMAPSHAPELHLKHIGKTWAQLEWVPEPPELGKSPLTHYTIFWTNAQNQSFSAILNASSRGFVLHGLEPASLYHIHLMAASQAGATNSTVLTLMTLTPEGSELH

[2] = target: T2, G-CSF receptor (NBT-2 cells) (Homo sapiens, UniProt Q99062)
T2 chain: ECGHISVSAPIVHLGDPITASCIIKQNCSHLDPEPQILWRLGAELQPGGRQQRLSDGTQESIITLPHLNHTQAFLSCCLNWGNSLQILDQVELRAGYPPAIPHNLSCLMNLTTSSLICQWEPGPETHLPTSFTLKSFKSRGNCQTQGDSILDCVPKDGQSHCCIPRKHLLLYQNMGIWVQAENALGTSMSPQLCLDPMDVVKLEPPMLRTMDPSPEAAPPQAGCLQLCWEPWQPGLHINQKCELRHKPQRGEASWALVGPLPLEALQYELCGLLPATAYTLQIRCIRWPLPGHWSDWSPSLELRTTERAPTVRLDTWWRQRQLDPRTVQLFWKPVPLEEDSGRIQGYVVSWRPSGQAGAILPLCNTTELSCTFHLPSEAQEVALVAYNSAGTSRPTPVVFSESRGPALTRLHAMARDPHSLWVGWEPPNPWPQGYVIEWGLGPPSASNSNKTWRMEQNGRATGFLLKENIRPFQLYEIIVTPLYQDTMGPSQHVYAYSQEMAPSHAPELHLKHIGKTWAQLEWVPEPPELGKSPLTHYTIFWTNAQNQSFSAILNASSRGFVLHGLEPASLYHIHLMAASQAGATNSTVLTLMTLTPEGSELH

[3] = target: T3, G-CSF receptor (KU-1 cells) (Homo sapiens, UniProt Q99062)
T3 chain: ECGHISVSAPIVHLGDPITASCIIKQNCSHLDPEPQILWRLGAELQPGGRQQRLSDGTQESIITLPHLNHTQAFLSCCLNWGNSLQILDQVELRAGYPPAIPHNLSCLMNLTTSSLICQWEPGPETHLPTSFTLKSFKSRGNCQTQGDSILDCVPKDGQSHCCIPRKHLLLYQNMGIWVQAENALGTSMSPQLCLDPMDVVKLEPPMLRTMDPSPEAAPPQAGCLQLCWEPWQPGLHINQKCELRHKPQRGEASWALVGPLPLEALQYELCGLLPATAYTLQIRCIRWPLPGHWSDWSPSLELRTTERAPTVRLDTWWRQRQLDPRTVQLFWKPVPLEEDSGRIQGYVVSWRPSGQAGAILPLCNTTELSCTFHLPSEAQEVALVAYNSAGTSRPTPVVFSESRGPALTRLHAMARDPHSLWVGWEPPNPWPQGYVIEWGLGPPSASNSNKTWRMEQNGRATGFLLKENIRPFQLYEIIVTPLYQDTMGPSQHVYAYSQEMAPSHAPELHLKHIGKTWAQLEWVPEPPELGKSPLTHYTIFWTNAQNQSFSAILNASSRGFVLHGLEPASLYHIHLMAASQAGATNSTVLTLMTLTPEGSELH

B1: G-CSF (protein)
chain: TPLGPASSLPQSFLLKCLEQVRKIQGDGAALQEKLVSECATYKLCHPEELVLLGHSLGIPWAPLSSCPSQALQLAGCLSQLHSGLFLYQGLLQALEGISPELGPTLDTLQLDVADFATTIWQQMEELGMAPALQPTQGAMPAFASAFQRRAGGVLVASHLQSFLEVSYRVLRHLAQP
B1 showed a Kd [1] of 0.103 nM, a Kd [2] of 0.34 nM and a Kd [3] of 0.49 nM.
